{"source": "the DeepSol protein solubility set", "data": [{"experiment": "soluble on expression in E. coli; label from the status in PepcDB or PDB records", "values": [{"sequence": "MNGLATSLGKGQESAIGGSSAIGEYIRPLPQPGDRPEPLSAKPTFLSRSGSARCRSESDMENERNSNTSKQRYSGKVHLCVARYSYNPFDGPNENPEAELPLTAGKYLYVYGDMDEDGFYEGELLDGQRGLVPSNFVDFVQDNESRLASTLGNEQDQNFINHSGIGLEGEHILDLHSPTHIDAGITDNSAGTLDVNIDDIGEDIVPYPRKITLIKQLAKSVIVGWEPPAVPPGWGTVSSYNVLVDKETRMNLTLGSRTKALIEKLNMAACTYRISVQCVTSRGSSDELQCTLLVGKDVVVAPSHLRVDNITQISAQLSWLPTNSNYSHVIFLNEEEFDIVKAARYKYQFFNLRPNMAYKVKVLAKPHQMPWQLPLEQREKKEAFVEFSTLPAGPPAPPQDVTVQAGVTPATIRVSWRPPVLTPTGLSNGANVTGYGVYAKGQRVAEVIFPTADSTAVELVRLRSLEAKGVTVRTLSAQGESVDSAVAAVPPELLVPPTPHPRPAPQSKPLASSGVPETKDEHLGPHARMDEAWEQSRAPGPVHGHMLEPPVGPGRRSPSPSRILPQPQGTPVSTTVAKAMAREAAQRVAESSRLEKRSVFLERSSAGQYAASDEEDAYDSPDFKRRGASVDDFLKGSELGKQMVS", "soluble on expression in E. coli": "not soluble"}, {"sequence": "MNGLLKYSFPICFSLLALFACEDDGIDVDNIEVPAGFALSAGTATNFLTSSYAYDRSADWITGAYDKRFTRGDKLYDDIRTSSNGIGGGLGPVYAGYSCGSCHRNAGRTQPTLWSEGGSGSSGFSSMLVYISRKNGAFFQDYGRVLHDQAIYGVKPEGKLKVEYTYETFQFPDGETYELCKPNYSIYEWYADSIKPEDLFCTVRIPLRHVGMGQMMALDPTEIEALAAKSNYPEYGISGRCNYISERGMRSLGLSGNKAQHADLTVELGFSSDMGVTNSRYPEEICEGQAQVNQGSMMGLSYAQLDVSTEEMENVDLYMQSLSVPARRNVNNEQVIKGEQNFYKAKCHLCHVTTLHTKPRGSILLNGTRLPWLGSQTIHPYSDFLLHDMGSEIMGVGLNDNYVSGLARGNEWRTTPLWGIGLQETVNGHTYFLHDGRARNYIEAIMWHGGEGEASKNLFKKMSKEDRNALVAFLKSL", "soluble on expression in E. coli": "not soluble"}, {"sequence": "MNGQNFNEMLHDEQVFAEFMVPNAHTTPNLWRIQQQNQENQIPQNFQHLDFQYFQYQNQKQEVVHGAHCMGTVGSSWNEQVAVKKPSSSQSRKGGKNKEEAREKNHQKNKALLEMLNQVDPAVIDAEIEEQKEKQRLRKNRGRYDPIGAHGAQQGTRGVQNEVQYHRNFQNNNNNNS", "soluble on expression in E. coli": "not soluble"}, {"sequence": "MNGRVDYLVTEEEINLTRGPSGLGFNIVGGTDQQYVSNDSGIYVSRIKENGAAALDGRLQEGDKILSVNGQDLKNLLHQDAVDLFRNAGYAVSLRVQHRLQVQNGPI", "soluble on expression in E. coli": "soluble"}, {"sequence": "MNGYQITFFTQQDRHHAGKPLADWLMHLAAEMGLRGATLIPGSEGMGHDKRFHSVHFFELSDQLLEVVMVVSEEEADQLFARLRAEGVRLFYVKVAAEFGIMD", "soluble on expression in E. coli": "not soluble"}, {"sequence": "MNIDLTPYYAEPGEQPFSARRMAMPWRNHVPLSPEQIPAGWQTLKQQSVPARKRLLYLHIPFCATHCTFCGFYQNKLRDDSTATYTRYLLQELAMEADSPLHQSAPIHAVYFGGGTPTALAADELSQIIRAIRTSLPLAPDCEITVEGRAMDFDDERIDACLDAGANRFSIGIQTFDTRIRQRMARTSDKQQSIRFLERLCGRDRAAVVCDLMFGLPGQTPEIWREDLAIVSDLPLDGVDLYALNLLPTTPLAKAAENQRVALPDVVARRDFYRTGAAFLADSGWHQLSNSHWARTTRERNLYNLLIKQGADCLAMGSGAGGNINGQAYMMERSLERYYQQIDQGQKPIMMMTPASSTGPWQHQLQAGIEVGRIKLPQLTQHARELQPLLSQWHQAGLTCDDSTCLRLTNDGRFWANNLMQALQQIIPQLNAEEHAHLEHHHHHH", "soluble on expression in E. coli": "soluble"}, {"sequence": "MNIELRHLRYFVAVAEELHFGRAAARLNISQPPLSQQIQALEQQIGARLLARTNRSVLLTAAGKQFLADSRQILSMVDDAAARAERLHQGEAGELRIGFTSSAPFIRAVSDTLSLFRRDYPDVHLQTREMNTREQIAPLIEGTLDMGLLRNTALPESLEHAVIVHEPLMAMIPHDHPLANNPNVTLAELAKEPFVFFDPHVGTGLYDDILGLMRRYHLTPVITQEVGEAMTIIGLVSAGLGVSILPASFKRVQLNEMRWVPIAEEDAVSEMWLVWPKHHEQSPAARNFRIHLLNALR", "soluble on expression in E. coli": "not soluble"}, {"sequence": "MNIERKQAKQKEISSGHSFLEWGMTILKMPPAKRIKMVRDGVKVTHLVGAGRYYGISQAKLSKLLGISDATITRKIRSSGKLGPLESERLARIALIEAEAEKVFDSSDLAKRWMLESNLALGESPLSLLDTDMGADEVRKVLASIAYGGIA", "soluble on expression in E. coli": "not soluble"}]}]}
